# Experimental data published in IntAct's records for PubMed 20818336.
# B1: Myocardin-related transcription factor A (Mus musculus), Q8K4J6 (parent)
# chain: MTLLEPEMLMMAVQSVLQLKLQQRRTREELVSQGIMPPLKSPAAFHEQRRSLERARTEDYLKRKIRSRPERAELVRMHILEETSAEPSLQAKQLKLKRARLADDLNEKIAQRPGPMELVEKNILPVESSLKEAIIVGQVNYPKVADSSSFDEDSSDALSPEQPASHESQGSVPSPLESRVSDPLPSATSISPTQVLSQLPMAPDPGETLFLAEQPPLPPAPLLPPSLANGSIVPTAKPAPTLIKQSQPKSASEKSQRSKKAKELKPKVKKLKYHQYIPPDQKQDKGAPAMDSSYAKILQQQQLFLQLQILNQQQQQQQQQHYNYQAILPAPPKPSAETPGSSAPTPSRSLSTSSSPSSGTPGPSGLARQSSTALAAKPGALPANLDDMKVAELKQELKLRSLPVSGTKTELIERLRAYQDQVSPAPGAPKAPATTSVLSKAGEVVVAFPAALLSTGSALVTAGLAPAEMVVATVTSNGMVKFGSTGSTPPVSPTPSERSLLSTGDENSTPGDAFGEMVTSPLTQLTLQASPLQIVKEEGARAASCCLSPGARAELEGLDKDQMLQEKDKQIEELTRMLQQKQQLVELLRLQLEQQKRAQQPAPASSPVKRESGFSSCQLSCQPQGSAHAFGSGLVVPTTNHGDTQAPAPESPPVVVKQEAGPPEPDLAPSSQLLLGSQGTSFLKRVSPPTLVTDSTGTHLILTVTNKSADGPGLPAGSPQQPLSQPGSPAPGPPAQMDLEHPPQPPFATPTSLLKKEPPGYEETVTQQPKQQENGSSSQHMDDLFDILIQSGEISADFKEPPSLPGKEKSPPAAAAYGPPLTPQPSPLSELPQAAPPPGSPTLPGRLEDFLESSTGLPLLTSGHEGPEPLSLIDDLHSQMLSSSAILDHPPSPMDTSELHFAPEPSSGMGLDLAVGHLDSMDWLELSSGGPVLSLAPLSTAAPSLFSMDFLDGHDLQLHWDSCL
# B2: Importin subunit alpha-3 (Homo sapiens), O00629 (parent)
# chain: MADNEKLDNQRLKNFKNKGRDLETMRRQRNEVVVELRKNKRDEHLLKRRNVPHEDICEDSDIDGDYRVQNTSLEAIVQNASSDNQGIQLSAVQAARKLLSSDRNPPIDDLIKSGILPILVHCLERDDNPSLQFEAAWALTNIASGTSEQTQAVVQSNAVPLFLRLLHSPHQNVCEQAVWALGNIIGDGPQCRDYVISLGVVKPLLSFISPSIPITFLRNVTWVMVNLCRHKDPPPPMETIQEILPALCVLIHHTDVNILVDTVWALSYLTDAGNEQIQMVIDSGIVPHLVPLLSHQEVKVQTAALRAVGNIVTGTDEQTQVVLNCDALSHFPALLTHPKEKINKEAVWFLSNITAGNQQQVQAVIDANLVPMIIHLLDKGDFGTQKEAAWAISNLTISGRKDQVAYLIQQNVIPPFCNLLTVKDAQVVQVVLDGLSNILKMAEDEAETIGNLIEECGGLEKIEQLQNHENEDIYKLAYEIIDQFFSSDDIDEDPSLVPEAIQGGTFGFNSSANVPTEGFQF
# partner: B1 chain
# Variants of: B1
# Settings: with ima3_human KPNA4, O00629
row,Variant,effect of a mutation on the interaction
1,K62A;R63A;K64A,decreasing interaction strength
2,K62A;R63A;K64A;K95A;L96A;K97A,disrupting interaction strength
3,K95A;L96A;K97A,decreasing interaction strength

# Variants of: B1
# Settings: with imb1_human KPNB1, Q14974
# Sequence of imb1_human KPNB1, Q14974 (Q14974 whole entry): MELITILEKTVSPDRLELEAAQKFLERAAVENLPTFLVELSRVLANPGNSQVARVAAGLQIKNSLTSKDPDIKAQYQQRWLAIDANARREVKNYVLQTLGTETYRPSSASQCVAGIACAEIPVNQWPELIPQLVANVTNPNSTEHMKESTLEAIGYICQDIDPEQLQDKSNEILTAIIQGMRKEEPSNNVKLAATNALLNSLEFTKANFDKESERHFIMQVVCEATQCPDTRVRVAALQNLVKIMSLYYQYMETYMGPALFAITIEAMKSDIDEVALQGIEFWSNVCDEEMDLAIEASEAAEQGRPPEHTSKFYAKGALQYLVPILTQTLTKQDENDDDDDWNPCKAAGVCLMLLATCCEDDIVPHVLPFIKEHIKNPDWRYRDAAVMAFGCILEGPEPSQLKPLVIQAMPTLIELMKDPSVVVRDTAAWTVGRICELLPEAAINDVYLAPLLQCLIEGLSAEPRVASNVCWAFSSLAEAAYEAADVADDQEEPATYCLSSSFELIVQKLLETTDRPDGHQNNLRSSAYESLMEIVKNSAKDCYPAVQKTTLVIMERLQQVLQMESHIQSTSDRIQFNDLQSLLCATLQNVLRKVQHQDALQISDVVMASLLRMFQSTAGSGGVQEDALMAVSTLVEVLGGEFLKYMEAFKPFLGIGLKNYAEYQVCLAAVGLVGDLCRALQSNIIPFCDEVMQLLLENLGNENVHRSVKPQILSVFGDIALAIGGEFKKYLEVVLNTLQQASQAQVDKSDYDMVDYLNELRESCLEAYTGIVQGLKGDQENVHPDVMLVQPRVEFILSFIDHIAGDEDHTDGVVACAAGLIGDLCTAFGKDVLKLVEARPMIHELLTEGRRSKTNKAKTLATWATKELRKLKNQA
row,Variant,effect of a mutation on the interaction
1,K62A;R63A;K64A,decreasing interaction strength
2,K95A;L96A;K97A,disrupting interaction strength

# Variants of: B2
# Settings: with mrtfa_mouse Mrtfa
row,Variant,effect of a mutation on the interaction
1,W179A;N183A,decreasing interaction strength
2,W179A;N183A;W390A;N394A,decreasing interaction strength
3,W390A;N394A,decreasing interaction strength
